Test results from patent US20260258142A1 (published 2026).

Target: Rabbit polyclonal Ab
Assay: ELISA

Kd: 18.6 nM
B1: phosphorylated HisTAG-ΔPDGFRAaa1-528 (receptor)
chain: QLSLPSILPNENEKVVQLNSSFSLRCFGESEVSWQYPMSEEESSDVEIRNEENNSGLFVTVLEVSSASAAHTGLYTCYYNHTQTEENELEGRHIYIYVPDPDVAFVPLGMTDYLVIVEDDDSAIIPCRTTDPETPVTLHNSEGVVPASYDSRQGFNGTFTVGPYICEATVKGKKFQTIPFNVYALKATSELDLEMEALKTVYKSGETIVVTCAVFNNEVVDLQWTYPGEVKGKGITMLEEIKVPSIKLVYTLTVPEATVKDSGDYECAARQATREVKEMKKVTISVHEKGFIEIKPTFSQLEAVNLHEVKHFVVEVRAYPPPRISWLKNNLTLIENLTEITTDVEKIQEIRYRSKLKLIRAKEEDSGHYTIVAQNEDAVKSYTFELLTQVPSSILDLVDDHHGSTGGQTVRCTAEGTPLPDIEWMICKDIKKCNNETSWTILANNVSNIITEIHSRDRSTVEGRVTFAKVEETIAVRCLAKNLLGAENRELKLVAPTLRSELTVA
modifications: tyrosine-phosphorylated (ectopically, by MAN2A1-FER in HUH7 cells); sites recognised by the antibodies: pY118/pY120, pY342, pY375, pY391
